Reference: US20040110231A1 (Takeda / Millennium, published 2004)
Positions count from the first letter of the chain named. Where no end group is shown, it is not given here. [ ]: non-standard residue; d: D form. Met(O) = CS(=O)CC[C@H](N)C(=O)O

T1: human GPR7 (human, UniProt P48145 1-328)
T1 sequence: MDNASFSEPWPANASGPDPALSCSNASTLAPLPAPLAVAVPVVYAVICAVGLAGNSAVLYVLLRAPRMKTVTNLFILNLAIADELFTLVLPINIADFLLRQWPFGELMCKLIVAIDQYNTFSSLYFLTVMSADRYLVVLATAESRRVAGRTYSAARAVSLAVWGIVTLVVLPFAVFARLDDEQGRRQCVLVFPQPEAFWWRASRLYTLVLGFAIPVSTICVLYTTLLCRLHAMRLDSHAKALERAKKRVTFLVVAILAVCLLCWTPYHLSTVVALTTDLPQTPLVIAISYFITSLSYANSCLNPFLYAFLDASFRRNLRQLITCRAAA

B1: mouse homolog to hGPR8L (1-30) (peptide)
peptide: WYKHVASPRYHTVGRASGLLMGLRRSPYQW
notes: also called mouse homologue of the GPR8 ligand peptide (30 residues)
B2: rat homolog to hGPR8L (1-30) (peptide)
peptide: B1 peptide with Q29L
notes: also called rat homologue of the GPR8 ligand peptide (30 residues)
B3: porcine homolog to hGPR8L (1-30) (peptide)
peptide: B1 peptide with V5T, S17A, Q29M
notes: also called porcine homologue of the GPR8 ligand peptide (30 residues)
B4: mouse GPR8 ligand (1-23) (peptide)
peptide: WYKHVASPRYHTVGRASGLLMGL
notes: also called mouse homolog to hGPR8L (1-23)
B5: rat GPR8 ligand (1-23) (peptide)
peptide: WYKHVASPRYHTVGRASGLLMGL
notes: also called rat homolog to hGPR8L (1-23)

Assays:
human GPR7 [1] = molecular target: T1, human GPR7; assay: cell-based or functional assay
human GPR7 [2] = molecular target: T1, human GPR7; assay: cell-based or functional assay; remark: listed apart in the source
human GPR8 = human GPR8 (human, UniProt P48146 1-333); assay: cell-based or functional assay
Sequence of human GPR8 (P48146 whole entry): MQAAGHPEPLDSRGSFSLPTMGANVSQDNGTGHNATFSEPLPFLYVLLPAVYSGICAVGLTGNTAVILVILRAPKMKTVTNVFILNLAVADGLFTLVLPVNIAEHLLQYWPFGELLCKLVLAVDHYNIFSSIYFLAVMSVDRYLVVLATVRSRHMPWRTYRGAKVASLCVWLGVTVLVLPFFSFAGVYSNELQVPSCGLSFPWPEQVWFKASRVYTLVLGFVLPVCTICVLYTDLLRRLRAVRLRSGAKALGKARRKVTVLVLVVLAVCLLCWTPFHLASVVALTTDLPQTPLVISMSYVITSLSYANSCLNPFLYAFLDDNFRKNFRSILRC

human GPR7 [3] = molecular target: T1, human GPR7; assay: competition with [125I-Tyr10]-hGPR8L (1-23) as tracer, membrane fraction of human GPR7-expressing CHO cells
Procedure: The thus prepared cell membrane fraction was diluted in various concentrations with an assay buffer (25 mM Tris-HCl, 5 mM EDTA, 0.05% CHAPS (3-[(3-choramidopropyl)dimethylammonio]-1-propanesulfonate), 0.1% BSA, 0.5 mM PMSF, 1 μg/ml pepstatin, 20 μg/ml leupeptin and 4 μg/ml E-64, pH 7.4). Then, a 200 μl aliquot of the dilution was dispensed into a propylene-made testing tube (Falcon 2053). In order to assay for the total binding, 2 μl of DMSO and 2 μl of 8 nM [¹²⁵I-Tyr¹⁰]-hGPR8L (1-23) was added to the membrane fraction solution. Also, the non-specific binding was assayed by adding 2 μl of a DMSO solution of 1 mM hGPR8L (1-23) and 2 μl of 8 nM [¹²⁵I-Tyr¹⁰]-hGPR8L (1-23) to the membrane fraction solution. After reacting at 25° C. for 75 minutes, the reaction solution was suction-filtrated through a polyethyleneimine-treated Whatman glass filter (GF-F), and the filter was washed twice with ˜1.5 ml of a wash buffer (25 mM Tris-HCl, 5 mM EDTA, 0.05% CHAPS, 0.1% BSA, pH 7.4). After the filtration, the residual radioactivity remained on the filter paper was measured with a γ-counter, and the specific binding was estimated by subtracting the non-specific binding from the total binding.
It could also be verified that the binding inhibition of [¹²⁵I-Tyr¹⁰]-hGPR8L (1-23) against the human GPR7-expressed CHO cell membrane fraction was noted as described above, when rat and mouse homologs (SEQ ID NO:73 and SEQ ID NO:91) to hGPR8L (1-23) and porcine, rat and mouse homologs (SEQ ID NO:57, SEQ ID NO:74 and SEQ ID NO:92) to hGPR8L (1-30).

Binder	intracellular cAMP production suppressing activity (IC50) (human GPR7 [1])	GTPγS-Binding promoting activity (EC50 nM) (human GPR7 [2])	GTPγ S binding promoting activity (EC50 nM) (human GPR8)	binding result (human GPR7 [3])
WYKHVASPRYHTVGRAAGLLMGL [human GPR8 ligand (1-23)]	0.025 nM	0.74 nM		
RYHTVGRAAGLLMGL [human GPR8 ligand (9-23)]		> 10000 nM	4200 nM	
HVASPRYHTVGRAAGLLMGL [human GPR8 ligand (4-23)]		> 10000 nM	6700 nM	
WYKHVASPRYHTVGRAAGLLMGLRRSPYLW [human GPR8 ligand (1-30)]		0.67 nM		
B1				binds
B2				binds
B3				binds
XYKHVASPRYHTVGRAAGLLMGL (D-Trp at position 1) [[D-Trp1]-human GPR8 ligand (1-23)]		2.3 nM	7.1 nM	
{3‑indolepropanoyl}-YKHVASPRYHTVGRAAGLLMGL [[N-3-Indolepropanyl-Tyr2]-human GPR8 ligand (2-23)]		0.85 nM	5 nM	
XYKHVASPRYHTVGRAAGLLMGL (Nα-acetyl on Trp1) [[Nα-Acetyl-Trp1]-human GPR8 ligand (1-23)]		1.5 nM	14 nM	
WYKHVASPRYHTVGRAAGLLXGL (Met (O) (methionine sulfoxide) at position 21) [oxidized human GPR8 ligand (1-23)]		1.6 nM	1.4 nM	
WYKHTASPRYHTVGRAAGLL[Met(O)]GL [oxidized porcine GPR8 ligand (1-23)]		1.2 nM	0.73 nM	
Ac-YKHVASPRYHTVGRAAGLLMGL [[N-Acetyl-Tyr2]-human GPR8 ligand (2-23)]		7000 nM	7200 nM	
B4				binds
B5				binds
WYKHTASPRYHTVGRAAGLLMGL [porcine GPR8 ligand (1-23)]		0.35 nM	1.5 nM	
WYKHVASPRYHTVGRAAGL [human GPR8 ligand (1-19)]		84 nM	1000 nM	
WYKHVASPRYHTVGRAAGLL [human GPR8 ligand (1-20)]		0.88 nM	0.86 nM	
XYKHVASPRYHTVGRAAGLLMGL (N-terminal Fmoc (N-9-fluorenylmethoxycarbonyl) on Trp1) [Fmoc-human GPR8 ligand (1-23)]		6.6 nM	240 nM	
YKHVASPRYHTVGRAAGLLMGL [human GPR8 ligand (2-23)]		7410 nM	3900 nM	
WYKHVASPRYHTVGRAAG [human GPR8 ligand (1-18)]		6200 nM	> 10000 nM	
